Fold higher binding activity than the reference Wuhan RBD-C-tag data for 2 substances are collected here from US20250042949A1.

The target of this test is recombinant human ACE2 receptor (SinoBiological) (human) (UniProt Q9BYF1).
UniProt Q9BYF1, sequence (Q9BYF1 18-740 limits assumed): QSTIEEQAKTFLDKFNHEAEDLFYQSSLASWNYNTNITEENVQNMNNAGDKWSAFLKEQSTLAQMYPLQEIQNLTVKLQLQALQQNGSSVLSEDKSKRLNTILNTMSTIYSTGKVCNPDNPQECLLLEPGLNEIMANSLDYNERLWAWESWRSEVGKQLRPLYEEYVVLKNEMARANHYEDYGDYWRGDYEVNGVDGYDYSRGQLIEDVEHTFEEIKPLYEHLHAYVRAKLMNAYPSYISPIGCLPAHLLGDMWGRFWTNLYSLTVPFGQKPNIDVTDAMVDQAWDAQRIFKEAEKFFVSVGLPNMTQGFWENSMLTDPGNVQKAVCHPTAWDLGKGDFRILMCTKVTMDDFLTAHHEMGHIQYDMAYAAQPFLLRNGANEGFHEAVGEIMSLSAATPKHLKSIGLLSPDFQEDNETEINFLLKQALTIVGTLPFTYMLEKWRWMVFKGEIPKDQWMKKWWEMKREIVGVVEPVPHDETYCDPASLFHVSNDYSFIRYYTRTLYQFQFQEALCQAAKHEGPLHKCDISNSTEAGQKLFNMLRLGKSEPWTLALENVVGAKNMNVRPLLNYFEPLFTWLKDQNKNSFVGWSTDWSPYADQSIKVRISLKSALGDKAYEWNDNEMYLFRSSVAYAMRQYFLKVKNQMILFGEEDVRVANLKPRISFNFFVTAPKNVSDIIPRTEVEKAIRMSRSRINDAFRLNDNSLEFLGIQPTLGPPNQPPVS

On to “RBD-omicron B.1.1.529 (RBD-C-tag) (other; other documents disagree on this pair)”, for which the fold higher binding activity than the reference Wuhan RBD-C-tag is 4 fold.
The figure for “RBD-omicron BA.5 (RBD-C-tag) (other; other documents disagree on this pair)” is 8 fold.
